# Target: native IL-18 wild-type (SEQ ID NO: 1) (human) (UniProt Q14116)
# Experiment: cell-based or functional assay
row,Substance,"IC50 of IL-18BP-mediated inhibition of IFNγ secretion, PD-1negative parental NK-92 cells [nM]"
1,His-tag human IL-18 binding protein isoform a (IL-18BPa; SinoBiologicals #10357-H08H) (from UniProt O95998 31-194),2.97

# Target: human IL-18BP-His (human) (UniProt O95998)
# Experiment: AlphaLISA detection of free IL-18BP
# human IL-18BP-His (human), sequence (O95998 31-194): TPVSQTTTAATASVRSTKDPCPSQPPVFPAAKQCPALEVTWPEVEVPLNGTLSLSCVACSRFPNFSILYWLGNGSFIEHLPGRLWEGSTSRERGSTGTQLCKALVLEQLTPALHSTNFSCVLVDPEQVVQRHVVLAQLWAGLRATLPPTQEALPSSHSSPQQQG
row,Substance,Kd [nM]
1,"IL-18 polypeptide of SEQ ID NO: 55 (K53A, T63A, C38S, C68S, C76S, C127S, K70C) (from UniProt Q14116 37-193) (ligand)",913
2,"IL-18 polypeptide C159 (V11I, C38A, K53A, C76A, H109A, C127A) (from UniProt Q14116 37-193) (ligand)",0.55
3,"IL-18 polypeptide C157 (V11I, C38A, K53A, C76A, C127A, D132A) (from UniProt Q14116 37-193) (ligand)",13.7
4,"IL-18 polypeptide of SEQ ID NO: 35 (Y01G, F02A, E06K, M51G, K53A, D54A, S55A, T63A) (from UniProt Q14116 37-193) (ligand)",969
5,"IL-18 polypeptide of SEQ ID NO: 50 (E06K, K53A, T63A) (from UniProt Q14116 37-193) (ligand)",340
6,"IL-18 polypeptide C142 (Y1M, E6K, V11I, C38A, K53A, T63A, C76A, C127A) (from UniProt Q14116 38-193) (ligand)",2.25
7,"IL-18 polypeptide C155 (V11I, C38A, D40A, K53A, C76A, C127A) (from UniProt Q14116 37-193) (ligand)",0.74
8,"IL-18 polypeptide of SEQ ID NO: 59 (E6K, C38A, K53A) (from UniProt Q14116 37-193) (ligand)",36
9,"IL-18 polypeptide C143 (V11I, C38A, K53A, C76A, C127A) (from UniProt Q14116 37-193) (ligand)",8.86
10,"IL-18 polypeptide C151 (V11I, D35A, C38A, K53A, C76A, C127A) (from UniProt Q14116 37-193) (ligand)",2.88
11,"IL-18 polypeptide C149 (V11I, E31A, C38A, K53A, C76A, C127A) (from UniProt Q14116 37-193) (ligand)",0.64
12,"IL-18 polypeptide C154 (V11I, E31A, D37A, C38A, K53A, C76A, C127A) (from UniProt Q14116 37-193) (ligand)",2.12
13,"IL-18 polypeptide C176 (E6K, V11I, C38A, I49M, K53A, T63A, C76A, C127A) (from UniProt Q14116 37-193) (ligand)",25.8
14,"IL-18 polypeptide C153 (V11I, D37A, C38A, K53A, C76A, C127A) (from UniProt Q14116 37-193) (ligand)",4.55
15,"IL-18 polypeptide C164 (V11I, C38A, S55H, C76A, C127A) (from UniProt Q14116 37-193) (ligand)",0.08
16,native IL-18 wild-type (SEQ ID NO: 1) (from UniProt Q14116 37-193) (ligand),0.67
17,IL-18 polypeptide of SEQ ID NO: 37 (S55A) (from UniProt Q14116 37-193) (ligand),10.7
18,"IL-18 polypeptide C147 (V11I, C38A, K53A, D54A, C76A, C127A) (from UniProt Q14116 37-193) (ligand)",25.8
19,"IL-18 polypeptide of SEQ ID NO: 39 (E06K, K53A) (from UniProt Q14116 37-193) (ligand)",130
20,"IL-18 polypeptide C146 (SEQ ID NO: 68; V11I, C38A, M51G, K53A, C76A, C127A) (from UniProt Q14116 37-193) (ligand)",373
21,"IL-18 polypeptide of SEQ ID NO: 62 (E6K, C38A, K53A, C127A) (from UniProt Q14116 37-193) (ligand)",69.6
22,"IL-18 polypeptide C160 (V11I, C38A, K53A, C76A, D110A, C127A) (from UniProt Q14116 37-193) (ligand)",0.71
23,"IL-18 polypeptide C184 (E6R, V11I, C38A, K53A, T63A, C76A, C127A) (from UniProt Q14116 37-193) (ligand)",5.46
24,"IL-18 polypeptide of SEQ ID NO: 42 (E06K, K53A, S55A, T63A) (from UniProt Q14116 37-193) (ligand)",822
25,"IL-18 polypeptide C156 (V11I, C38A, N41A, K53A, C76A, C127A) (from UniProt Q14116 37-193) (ligand)",18.5
26,"IL-18 polypeptide of SEQ ID NO: 54 (E06K, K53A, C38S, C68S, C76S, C127S, K70C) (from UniProt Q14116 37-193) (ligand)",446

row,Substance,Kd [nM]
1,"IL-18 polypeptide of SEQ ID NO: 47 (C38S, C68S, C76S, C127S) (from UniProt Q14116 37-193) (ligand)",0.03
2,"IL-18 polypeptide of SEQ ID NO: 56 (E6K, K53A, C38S, C76S, C127S) (from UniProt Q14116 37-193) (ligand)",436
3,"IL-18 polypeptide C148 (F2A, V11I, C38A, K53A, C76A, C127A) (from UniProt Q14116 37-193) (ligand)",57.2
4,"IL-18 polypeptide C144 (V11I, C38A, K53A, T63A, C76A, C127A) (from UniProt Q14116 37-193) (ligand)",0.66
5,"IL-18 polypeptide C162 (K8E, V11I, C38A, C76A, Q103R, C127A) (from UniProt Q14116 37-193) (ligand)",0.85
6,"IL-18 polypeptide of SEQ ID NO: 53 (K53A, T63A) (from UniProt Q14116 37-193) (ligand)",198
7,IL-18 polypeptide of SEQ ID NO: 38 (E06K) (from UniProt Q14116 37-193) (ligand),0.13
8,"IL-18 polypeptide of SEQ ID NO: 41 (K53A, S55A) (from UniProt Q14116 37-193) (ligand)",500
9,"IL-18 polypeptide C165 (V11I, C38A, S55R, C76A, C127A) (from UniProt Q14116 37-193) (ligand)",0.15
10,"IL-18 polypeptide C174 (K8L, E6K, V11I, C38A, K53A, T63A, C76A, C127A) (from UniProt Q14116 37-193) (ligand)",0.14
11,"IL-18 polypeptide C152 (V11I, S36A, C38A, K53A, C76A, C127A) (from UniProt Q14116 37-193) (ligand)",1.12
12,"IL-18 polypeptide of SEQ ID NO: 52 (E06K, T63A) (from UniProt Q14116 37-193) (ligand)",0.83
13,"IL-18 polypeptide C166 (V11I, C38A, S55T, C76A, C127A) (from UniProt Q14116 37-193) (ligand)",0.02
14,"IL-18 polypeptide of SEQ ID NO: 48 (C38S, C68S, C76S, C127S, K70C) (from UniProt Q14116 37-193) (ligand)",0.21
15,"IL-18 polypeptide C145 (V11I, C38A, K53A, S55A, C76A, C127A) (from UniProt Q14116 37-193) (ligand)",9.74
16,"IL-18 polypeptide C150 (V11I, T34A, C38A, K53A, C76A, C127A) (from UniProt Q14116 37-193) (ligand)",1.24
17,"IL-18 polypeptide of SEQ ID NO: 40 (E06K, S55A) (from UniProt Q14116 37-193) (ligand)",12.3
18,"IL-18 polypeptide C167 (V11I, C38A, C76A, S105I, C127A) (from UniProt Q14116 37-193) (ligand)",0.04
19,"IL-18 polypeptide of SEQ ID NO: 57 (E6K, C38S, K53A) (from UniProt Q14116 37-193) (ligand)",50.2
20,IL-18 polypeptide of SEQ ID NO: 51 (T63A) (from UniProt Q14116 37-193) (ligand),2.59
21,IL-18 polypeptide of SEQ ID NO: 36 (K53A) (from UniProt Q14116 37-193) (ligand),514
22,"IL-18 polypeptide C163 (V11I, C38A, C76A, Q103K, C127A) (from UniProt Q14116 37-193) (ligand)",0.05
23,"IL-18 polypeptide of SEQ ID NO: 60 (E6K, C38Q, K53A) (from UniProt Q14116 37-193) (ligand)",24.8
24,"IL-18 polypeptide C158 (V11I, C38A, K53A, C76A, G108A, C127A) (from UniProt Q14116 37-193) (ligand)",1.24
25,"IL-18 polypeptide C168 (V11I, C38A, C76A, S105K, C127A) (from UniProt Q14116 37-193) (ligand)",0.05
26,"IL-18 polypeptide C161 (K8R, V11I, C38A, C76A, Q103E, C127A) (from UniProt Q14116 37-193) (ligand)",0.06

# Target: human IL-18BP-His (human) (UniProt O95998)
# Experiment: AlphaLISA detection of free IL-18BP after incubation with the IL-18 analyte
row,Substance,Kd [nM]
1,"IL-18 polypeptide of SEQ ID NO: 31 (C38A, C76A, C127A) (from UniProt Q14116 37-193) (ligand)",0.103
2,native IL-18 wild-type (SEQ ID NO: 1) (from UniProt Q14116 37-193) (ligand),0.411

# Target: human IL-18BP-His (human) (UniProt O95998)
# Experiment: AlphaLISA for free IL-18BP; test item titrated (x axis) and pre-incubated with human IL-18BP-His, unbound IL-18BP detected
row,Substance,IC50 (read off the curve) [nM]
1,"IL-18 polypeptide of SEQ ID NO: 31 (C38A, C76A, C127A) (from UniProt Q14116 37-193) (ligand)",0.1
2,native IL-18 wild-type (SEQ ID NO: 1) (from UniProt Q14116 37-193) (ligand),0.4

# Reference: patent US20250186597A1, “TARGETED IMMUNE ACTIVATION WITH IL-18 IMMUNOCYTOKINES” (BRIGHT PEAK THERAPEUTICS AG, priority 2023, published 2025)
